One test concerns the target CaMKIIδ (Homo sapiens) (UniProt Q13557). Conditions: cited from earlier work.
Test [1] deals with biotinylated SN‐db‐short [SN (7–26, L17F, V20F)] (human). Description: SPR; Biacore X100, room temperature; biotin‐ahx‐SN‐db‐short immobilised on a streptavidin chip (58 RU); His‐CaMKIIδ‐T287D 0.06–1 μM injected, single‐cycle; HEPES running buffer with 2.5 mM Ca2+; 1:1 Langmuir fit; average of three experiments. A general note: Surface plasmon resonance follows binding to a sensor surface in real time, without labels.

Chain of Secretoneurin (P13521 182-214): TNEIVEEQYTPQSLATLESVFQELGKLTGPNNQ
Chain of CaMKIIδ (Homo sapiens) (Q13557 2-499, stated change not applied): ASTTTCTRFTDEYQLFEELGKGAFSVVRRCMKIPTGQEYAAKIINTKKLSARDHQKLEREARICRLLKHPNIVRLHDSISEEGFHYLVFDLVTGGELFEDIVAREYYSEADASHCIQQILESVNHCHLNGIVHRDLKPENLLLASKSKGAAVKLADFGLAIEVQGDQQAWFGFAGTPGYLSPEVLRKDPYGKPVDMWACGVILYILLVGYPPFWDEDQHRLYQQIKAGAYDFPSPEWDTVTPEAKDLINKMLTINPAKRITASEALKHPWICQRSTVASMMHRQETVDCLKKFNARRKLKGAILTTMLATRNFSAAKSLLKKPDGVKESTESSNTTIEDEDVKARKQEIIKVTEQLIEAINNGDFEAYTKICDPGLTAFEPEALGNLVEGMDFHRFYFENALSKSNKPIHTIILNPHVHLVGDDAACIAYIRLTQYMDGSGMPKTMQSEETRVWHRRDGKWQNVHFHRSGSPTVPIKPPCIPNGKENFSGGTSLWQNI

Secretoneurin (from UniProt P13521): the equilibrium dissociation constant (Kd) (in general, the concentration at which binding is half-saturated) with CaMKIIδ (Homo sapiens) is 80 nM.

On to “recombinant His‐CaMKIIδ‐T287D (species not named for the experiment) (from UniProt P15791 1-533) (enzyme)”, for which, in test [1], the dissociation constant (Kd) worked out at 68 nM; the off-rate constant (koff) (in general, the first-order rate constant of dissociation) came to 0.00057 s⁻¹; the on-rate constant (kon) (commonly a measure of how fast the partners come together) was found to be 14000 M⁻¹ s⁻¹.
